Data reported in patent publication US20110076723A1, “ANTIBODY-PEPTIDE FUSED SYNERGIBODY” (SAMSUNG ELECTRONICS CO., LTD., priority 2008, published 2011).

Test system: HUVEC
Experiment: Cell-based functional assay, endothelial cell tube formation (BD BioCoat Angiogenesis System)
Set-up: species or system human
Conditions: 5 μM fused protein synergibody, 18 hours; unrelated control group 12,227 ± 1,232
Method: Chimeric antibodies may be screened by functional assays such as cell-based assay for inhibition activity. In this example, BD BioCoat™ Angiogenesis System-Endothelial Cell Tube Formation (BD Biosciences) is used. BD Falcon 96-well Black/Clear plate coated with BD Matrigel Matrix that had been stored at −20° C. is slowly melted at 4° C. for 6 hours, and the mat cover of the plate is removed inside a sterile clean bench. Then it is left at 37° C. , 5% CO2 for 30 minutes so that the Matrigel™ Matrix would form polymers. Then it is made into a suspension by treating HUVEC, cultured on a petridish containing EGM-2 MV (Lonza) medium added with 10% fetal bovine serum to 70 to 80% confluence, with 0.5% Trypsin-EDTA (Gibco). Then it is resuspended in a culture medium containing 10% fetal bovine serum to a cell concentration of 4×10^5 cells/ml. At this time, 5 μM of each anti-Ang-2 chimeric antibodies expressed and purified in Section 5 above are also added and resuspended. Then 50 μl (about 2×10^4 cells) of each of the suspension is added to each well of the plate and incubated at 37° C. , 5% CO2 for 18 hours. Then the medium is removed and each well is washed twice with 100 μl of Hanks' balanced salt solution (HBSS, Invitrogen) ensuring that the tubes of the cells formed on BD Matrigel™ Matrix are not damaged. 50 μl of calcein AM (BD sciences) dissolved in HBSS at the concentration of 8 μg/ml is added to each well. The plate is then left to react at 37° C., 5% CO2 for 30 minutes and the calcein AM (BD sciences) solution is removed and washed twice with HBSS. Lastly, an image of the length of the entire tube of HUVEC formed on BD Matrigel™ Matrix is obtained on a fluorescent microscope and analyzed by using MetaMorph® software (Universal Imaging Corporation™, http://www.moleculardevices.com).
The peptides synthesized in Section 6A above are screened by cell-based functional assay for inhibition activity. The method described in Example 1, Section 7 is used, except that 5 μM synthesized peptides are added instead of anti-Ang-2 antibodies.
The fused protein synergibodies prepared in Section 1 above are screened using cell-based functional assay for inhibition activity. The method described in Example 1, Section 7 is used, except that, in this example, 5 μM of fused protein synergibodies are added instead of anti-Ang-2 antibodies.

B1: Syn-Ang-VEGFR-12: fused protein synergibody SAITAng-2-3 × DTN8VEGFR-2-2, peptide at C-terminal of heavy chain (protein)
heavy (part 1 of 2): DVQLVESGGGLVQPGGSRKLSCAASGFTFSSFGMHWVRQAPEKGLEWVAYISSDSSTIYYADTVKGRFTISRDNPKNTLFLQMTSLRSEDTAMYYCAREGGYDDYYAMDYWGQGTSVTVSS
heavy (part 2 of 2): EAGKETCGYEWQYCPRP
light: DIQMTQSPASQSASLGESVTITCLASQTIGTWLAWYQQKPGKSPQLLIYAATSLADGVPSRFSGSGSGTKFSFKISSLQAEDFVSYYCQQLYSIPLTFGGGTKLEIK
modifications: left off: a dimerising Fc or GST
notes: fused protein synergibody SAITAng-2-3 × DTN8VEGFR-2-2, peptide at C-terminal of heavy chain
  Length of entire tube of HUVEC (2 × 10^4 cells) (pixels): 3,899 ± 923 pixels

B2: Syn-Ang-VEGFR-13: fused protein synergibody SAITAng-2-3 × DTN9VEGFR-2-3, peptide at C-terminal of heavy chain (protein)
heavy (part 1 of 2): B1 heavy (part 1 of 2)
heavy (part 2 of 2): EAGAYWCKAWGLSPCLVT
light: B1 light
modifications: left off: a dimerising Fc or GST
notes: fused protein synergibody SAITAng-2-3 × DTN9VEGFR-2-3, peptide at C-terminal of heavy chain
  Length of entire tube of HUVEC (2 × 10^4 cells) (pixels): 4,216 ± 747 pixels

B3: Syn-Ang-VEGFR-14: fused protein synergibody SAITAng-2-3 × DTN10VEGFR-2-4, peptide at C-terminal of heavy chain (protein)
heavy (part 1 of 2): B1 heavy (part 1 of 2)
heavy (part 2 of 2): TGSGRMCDGSGPPTNCWFT
light: B1 light
modifications: left off: a dimerising Fc or GST
notes: fused protein synergibody SAITAng-2-3 × DTN10VEGFR-2-4, peptide at C-terminal of heavy chain
  Length of entire tube of HUVEC (2 × 10^4 cells) (pixels): 4,183 ± 698 pixels

B4: Syn-Ang-VEGFR-15: fused protein synergibody SAITAng-2-3 × DTN11VEGFR-2-5, peptide at C-terminal of heavy chain (protein)
heavy (part 1 of 2): B1 heavy (part 1 of 2)
heavy (part 2 of 2): PGSQGYCHLNMRYQWICDSE
light: B1 light
modifications: left off: a dimerising Fc or GST
notes: fused protein synergibody SAITAng-2-3 × DTN11VEGFR-2-5, peptide at C-terminal of heavy chain
  Length of entire tube of HUVEC (2 × 10^4 cells) (pixels): 4,116 ± 815 pixels

B5: Syn-Ang-VEGFR-16: fused protein synergibody SAITAng-2-4 × DTN6VEGFR-2-1, peptide at C-terminal of heavy chain (protein)
heavy (part 1 of 2): QVQLQQSGAELARPGASVKLSCKASGYTFTDYYINWAKQRTGQGLEWIGEIYPGSGDTYYNEKFKGKATLTADKSSSTAYMQLSSLTSEDSAVYFCARYGYKGVYFDYWGQSTTLTVSS
heavy (part 2 of 2): TGSDDLCYTFPCMHY
light: ENVLTQSPAIMAASLGQKVTMTCSASSSVSSSYLHWYQQKSGASPKPLIHRTSNLASGVPARFSGSGSGTSYSLTISSVEAEDDATYYCQQWSGYPFTFGAGTKLELK
modifications: left off: a dimerising Fc or GST
notes: fused protein synergibody SAITAng-2-4 × DTN6VEGFR-2-1, peptide at C-terminal of heavy chain
  Length of entire tube of HUVEC (2 × 10^4 cells) (pixels): 5,022 ± 809 pixels

B6: Syn-Ang-VEGFR-20: fused protein synergibody SAITAng-2-4 × DTN11VEGFR-2-5, peptide at C-terminal of heavy chain (protein)
heavy (part 1 of 2): B5 heavy (part 1 of 2)
heavy (part 2 of 2): PGSQGYCHLNMRYQWICDSE
light: B5 light
modifications: left off: a dimerising Fc or GST
notes: fused protein synergibody SAITAng-2-4 × DTN11VEGFR-2-5, peptide at C-terminal of heavy chain
  Length of entire tube of HUVEC (2 × 10^4 cells) (pixels): 5,512 ± 699 pixels

B7: Syn-Ang-VEGFR-18: fused protein synergibody SAITAng-2-4 × DTN9VEGFR-2-3, peptide at C-terminal of heavy chain (protein)
heavy (part 1 of 2): B5 heavy (part 1 of 2)
heavy (part 2 of 2): EAGAYWCKAWGLSPCLVT
light: B5 light
modifications: left off: a dimerising Fc or GST
notes: fused protein synergibody SAITAng-2-4 × DTN9VEGFR-2-3, peptide at C-terminal of heavy chain
  Length of entire tube of HUVEC (2 × 10^4 cells) (pixels): 5,723 ± 736 pixels

B8: Syn-Ang-VEGFR-17: fused protein synergibody SAITAng-2-4 × DTN8VEGFR-2-2, peptide at C-terminal of heavy chain (protein)
heavy (part 1 of 2): B5 heavy (part 1 of 2)
heavy (part 2 of 2): EAGKETCGYEWQYCPRP
light: B5 light
modifications: left off: a dimerising Fc or GST
notes: fused protein synergibody SAITAng-2-4 × DTN8VEGFR-2-2, peptide at C-terminal of heavy chain
  Length of entire tube of HUVEC (2 × 10^4 cells) (pixels): 5,215 ± 714 pixels

B9: Syn-Ang-VEGFR-19: fused protein synergibody SAITAng-2-4 × DTN10VEGFR-2-4, peptide at C-terminal of heavy chain (protein)
heavy (part 1 of 2): B5 heavy (part 1 of 2)
heavy (part 2 of 2): TGSGRMCDGSGPPTNCWFT
light: B5 light
modifications: left off: a dimerising Fc or GST
notes: fused protein synergibody SAITAng-2-4 × DTN10VEGFR-2-4, peptide at C-terminal of heavy chain
  Length of entire tube of HUVEC (2 × 10^4 cells) (pixels): 5,329 ± 822 pixels
